From patent US8592138B2, “Methods for improving sperm functionality” (Androgenix Ltd., priority 2010, dated 2013)

Assays:
Bovine sperm cells = assay: Fluorescence microscopy of pegylated seminal proteins binding to sperm; format: cell-based; details: pegylated/biotinylated SP protein, 37° C. for 30 min in NCM
Procedure: (§1) NHS-dPEG4-Biotin was resuspended in H2O. Two hundred micrograms of PDC-109, BSP-A3, BSP-30 kDa and aSFP, were mixed in molar ratios of 1:5, 1:20, 1:40 and 1:60 with NHS-dPEG4Biotin and incubated for 30 min at room temperature. The reaction was stopped by the addition of 1M Tris-HCl pH7.4 at a final concentration of 25 mM. Pegylated proteins were dialysed against PBS to remove excess PEG. Pegylation was assessed by SDS-PAGE with Coomassie Blue staining. […] Western blots with labelled streptavidin supported this conclusion.
Bovine sperm cells from liquid extended semen were percoll-purified and washed in non-capacitating media (NCM; Table 3 below) with addition of 0.1% PEG (MW 600, Serva). The cells were incubated with pegylated/biotinylated SP proteins in NCM at 37° C. for 30 min, and centrifuged once to remove the supernatant. Cell pellets were resuspended in NCM containing streptavidin-alexa fluor 488 and LIVE/DEAD fixable far red dye, and incubated at 37° C. for 1 hr. Cells were washed once in NCM, and resuspended in NCM to a final concentration close to 10^7 cells/ml. DAPI was added to cells, and 10^5 cells were placed onto Superfrost plus slide. The sperm cells were studied with a Leica DMRE microscope equipped with a Leica DC500 camera, a fluorescent ebq 100 lamp and interchangeable filter sets.

sperm cells = assay: Flow cytometry of pegylated seminal proteins binding to sperm; format: cell-based, bovine; details: 1 μg/mL pegylated SP protein, 30 min at 28° C.
Procedure: as §1
Sperm cells were prepared by centrifugation of fresh ejaculate containing extender through a 60% Percoll™ PLUS gradient followed by one wash in NCM. The sperm cells were then incubated for 30 min at 28° C. with 1 μg/mL of each of the pegylated SP proteins. After incubation with the pegylated SP proteins, cells were washed once, streptavidin-alexa fluor 488 was added to the cells and they were incubated for a further 30 min at 37° C. Flow cytometry analysis was then conducted.

B1: aSFP: acidic seminal fluid protein, bovine spermadhesin; SEQ ID NO: 4 (protein, listed as Bos taurus)
chain: MKLSSVIPWALLLSTATVDSMDWLPRNTNCGGILKEESGVIATYYGPKTNCVWTIQMPPEYHVRVSIQYLQLNCNKESLEIIDGLPGSPVLGKICEGSLMDYRSSGSIMTVKYIREPEHPASFYEVLYFQDPQA
Fluorescent signal on sperm (streptavidin-alexa fluor 488) (Bovine sperm cells): strong fluorescent signal in the acrosomal cap part of sperm head

B2: BSP-A3: bovine seminal plasma protein; SEQ ID NO: 2 (protein, listed as Bos taurus)
chain: MALRLGLFLIWAGVSMFLQLDPVNGDEQLSEDNVILPKEKKDPASGAETKDNKCVFPFIYGNKKYFDCTLHGSLFLWCSLDADYTGRWKYCTKNDYAKCVFPFIYEGKSYDTCIIIGSTFMNYWCSLSSNYDEDGVWKYC
Binding to sperm cells (right-shift in the histogram vs streptavidin-alexa fluor 488 alone) (sperm cells): demonstrated binding to sperm cells

B3: PDC-109: bovine seminal plasma protein purified by ion exchange chromatography; SEQ ID NO: 1 (protein, listed as Bos taurus)
chain: MALQLGLFLIWAGVSVFLQLDPVNGDQDEGVSTEPTQDGPAELPEDEECVFPFVYRNRKHFDCTVHGSLFPWCSLDADYVGRWKYCAQRDYAKCVFPFIYGGKKYETCTKIGSMWMSWCSLSPNYDKDRAWKYC
Binding to sperm cells (right-shift in the histogram vs streptavidin-alexa fluor 488 alone) (sperm cells): demonstrated binding to sperm cells
